Four molecules from PMC11934133 (2025) can be followed below.

Experiment [1] has as its target T1, Zika virus SPH2015 nonstructural protein 1 (NS1) (Zika virus (strain SPH2015)).
T1 chain: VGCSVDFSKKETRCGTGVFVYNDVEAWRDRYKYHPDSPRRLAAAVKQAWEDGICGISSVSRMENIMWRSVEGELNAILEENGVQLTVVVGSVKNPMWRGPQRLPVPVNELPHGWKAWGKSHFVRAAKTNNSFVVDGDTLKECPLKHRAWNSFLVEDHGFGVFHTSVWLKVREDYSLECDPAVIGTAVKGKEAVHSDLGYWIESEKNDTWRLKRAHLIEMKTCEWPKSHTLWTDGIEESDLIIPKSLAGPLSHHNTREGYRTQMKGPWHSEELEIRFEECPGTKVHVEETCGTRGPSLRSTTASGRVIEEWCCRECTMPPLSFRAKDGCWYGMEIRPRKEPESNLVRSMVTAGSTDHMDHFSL
Description: BLI; GST-VHH immobilized, NS1 in solution.

Experiment [2] deals with T1, Zika virus SPH2015 nonstructural …. Put plainly: BLI; NS1 immobilized, GST-VHH in solution.
For experiment [3], the target named is Zika virus SPH2015 nonstructural protein 1 (NS1) (Zika virus (strain SPH2015)). Put plainly: BLI.
In experiment [4] the target is T1, Zika virus SPH2015 nonstructural …. Put plainly: BLI.
Experiment [5] shares this target. Put plainly: BLI; NS1 saturated with Nb32-Strep.

B1: GST-tagged ZIKV_NbD6 (VHH)
VHH: EVQLVESGGGSVQPGGSLRLSCAASGFAFSHYAMRWVRQAPGKGLEWVSVINSDGEDTWYADSVKGRFTISRDNAKNTLYLQMNSLKPEDTGVYYCAIGRTHDTKGQGTQVTVS
B1: the values for the koff in experiment [1] and in experiment [2] were under 1e-07 s⁻¹ and 7.6e-05 s⁻¹, respectively.

B2: GST-tagged ZIKV_Nb32 (VHH)
VHH: EVQLVESGGGLVQAGGSLRLSCAVSGIDFSRYAITWNRQSPGNQRREWVATLPPADTTVYADAVKGRFTISRDNTKNTVYLQMNSLKPEDTAVYYCATSPRIHNWGQGTQVTVS
In experiment [3], B2 had a Kd of 0.035 nM and a fold increase of koff against the orientation with the nanobody immobilised of over 100 fold. This molecule showed a koff in experiment [1] of under 1e-07 s⁻¹. For the same molecule, in experiment [2], the koff came to 2e-05 s⁻¹.

B3: ZIKV_NbD6 with C-terminal StrepTag-II (VHH)
VHH: EVQLVESGGGSVQPGGSLRLSCAASGFAFSHYAMRWVRQAPGKGLEWVSVINSDGEDTWYADSVKGRFTISRDNAKNTLYLQMNSLKPEDTGVYYCAIGRTHDTKGQGTQVTVSS
In experiment [3], B3 came in with a Kd of 8 nM, a fold increase of koff against the GST-tagged nanobody of 26 fold and a fold increase of kon against the GST-tagged nanobody of 3.6 fold. In addition, the koff in experiment [4] came to 0.002 s⁻¹. The molecule further came in with a Kd in experiment [5] of 5.9 nM.

B4: ZIKV_Nb32 with C-terminal StrepTag-II (VHH)
VHH: EVQLVESGGGLVQAGGSLRLSCAVSGIDFSRYAITWNRQSPGNQRREWVATLPPADTTVYADAVKGRFTISRDNTKNTVYLQMNSLKPEDTAVYYCATSPRIHNWGQGTQVTVSS
As to B4, in experiment [3], the Kd came out at 0.16 nM, the fold increase of koff against the GST-tagged nanobody worked out at 15 fold and the fold increase of kon against the GST-tagged nanobody is 3.2 fold. The molecule also gave a koff in experiment [4] of 0.00029 s⁻¹.
